The record followed here is patent publication US7855050.

What all share (assay): cell-based or functional assay
Experiment [1] concerns the target Glycoprotein VI, GPVI^b allele protein (PEALN), on platelets of 'bb' homozygous donors (human) (UniProt Q9HCN6).
Experiment [2] deals with Glycoprotein VI, GPVI^a allele protein (SKTQH), on platelets of 'aa' homozygous donors (human) (UniProt Q9HCN6).
Experiment [3] has as its target Glycoprotein VI on human platelets of donors not sorted to one allele (random donors, 'ab' heterozygotes, or donors whose genotype is not stated) (human) (UniProt Q9HCN6).

Regarding “Collagen related peptide (CRP), triple-helical peptide containing a glycine-proline-hydroxyproline repeat motif”, the platelet aggregation at a CRP concentration of 0.10 µg/ml (mean) in experiment [1] is 4.6%; in experiment [2], 71%. In addition, the % of platelets binding annexin V at CRP 10 µg/ml in experiment [3] was in the range of 10 to 30%.
